Target: CD4 receptor on primary human CD4+ T lymphocytes (human, UniProt P01730 26-458)
Experiment: cell-based or functional assay

B1: IL-16/Lamp2b fusion protein (Interleukin (IL)-16 C-terminal 20 amino acid domain fused to the N-terminus of lysosome-associated membrane protein 2 variant b), … (other)
chain: GNSTMGSGTIVIRRKSLQSKETTAAGDSGSGSGSGGSSLELNLTDSENATCLYAKWQMNFTVRYETTNKTYKTVTISDHGTVTYNGSICGDDQNGPKIAVQFGPGFSWIANFTKAASTYSIDSVSFSYNTGDNTTFPDAEDKGILTVDELLAIRIPLNDLFRCNSLSTLEKNDVVQHYWDVLVQAFVQNGTVSTNEFLCDKDKTSTVAPTIHTTVPSPTTTPTPKEKPEAGTYSVNNGNDTCLLATMGLQLNITQDKVASVININPNTTHSTGSCRSHTALLRLNSSTIKYLDFVFAVKNENRFYLKEVNISMYLVNGSVFSIANNNLSYWDAPLGSSYMCNKEQTVSVSGAFQINTFDLRVQPFNVTQGKYSTAQECSLDDDTILIPIIVGAGLSGLIIVIVIAYVIGRRKSYAGYQTLGSGYPYDVPDYA
  Tat protein delivery to rCD4+T lymphocytes (Western blot of intracellular Tat), EXO^CD4-Tat exosomes compared to EXO-Tat exosomes: 20 fold
